Reference: paper PMC11855606

Legend:
[1] = target: growth hormone receptor b (ghrb) of Cynoglossus semilaevis, mScarlet-I fusion (pcDNA3.1-S-ghrb) (Cynoglossus semilaevis); assay: FRET or BRET; acceptor bleaching FRET in HEK 293T cells co-transfected with the mNeonGreen-ligand and mScarlet-I-receptor plasmids at a 1:2 ratio, 48 h after transfection, Nikon A1R HD25 confocal microscope; FRETeff = (Dpost - Dpre)/Dpost
[2] = target: growth hormone receptor a (ghra) of Cynoglossus semilaevis, mScarlet-I fusion (pcDNA3.1-S-ghra) (Cynoglossus semilaevis); assay: as above
growth hormone receptor a (ghra) of Cynoglossus semilaevis, mScarlet-I fusion (pcDNA3.1-S-ghra) (Cynoglossus semilaevis), sequence (main, as listed by the source): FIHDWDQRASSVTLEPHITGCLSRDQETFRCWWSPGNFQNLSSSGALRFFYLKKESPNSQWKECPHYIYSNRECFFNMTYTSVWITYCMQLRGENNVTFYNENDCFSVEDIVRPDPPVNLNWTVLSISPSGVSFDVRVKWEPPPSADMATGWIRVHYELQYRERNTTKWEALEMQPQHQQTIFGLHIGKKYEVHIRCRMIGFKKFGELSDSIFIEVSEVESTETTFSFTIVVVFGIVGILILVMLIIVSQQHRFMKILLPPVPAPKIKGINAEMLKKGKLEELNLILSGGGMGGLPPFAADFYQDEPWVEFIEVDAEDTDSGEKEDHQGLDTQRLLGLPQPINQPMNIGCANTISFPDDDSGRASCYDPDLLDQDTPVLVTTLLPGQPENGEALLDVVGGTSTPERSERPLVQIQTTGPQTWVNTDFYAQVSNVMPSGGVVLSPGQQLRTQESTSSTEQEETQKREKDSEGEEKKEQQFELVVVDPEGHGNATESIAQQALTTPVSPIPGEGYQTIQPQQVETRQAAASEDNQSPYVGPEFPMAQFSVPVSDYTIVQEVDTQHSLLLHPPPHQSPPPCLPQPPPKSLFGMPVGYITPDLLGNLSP

growth hormone receptor b (ghrb) of Cynoglossus semilaevis, mScarlet-I fusion (pcDNA3.1-S-ghrb) (Cynoglossus semilaevis), sequence (main, as listed by the source): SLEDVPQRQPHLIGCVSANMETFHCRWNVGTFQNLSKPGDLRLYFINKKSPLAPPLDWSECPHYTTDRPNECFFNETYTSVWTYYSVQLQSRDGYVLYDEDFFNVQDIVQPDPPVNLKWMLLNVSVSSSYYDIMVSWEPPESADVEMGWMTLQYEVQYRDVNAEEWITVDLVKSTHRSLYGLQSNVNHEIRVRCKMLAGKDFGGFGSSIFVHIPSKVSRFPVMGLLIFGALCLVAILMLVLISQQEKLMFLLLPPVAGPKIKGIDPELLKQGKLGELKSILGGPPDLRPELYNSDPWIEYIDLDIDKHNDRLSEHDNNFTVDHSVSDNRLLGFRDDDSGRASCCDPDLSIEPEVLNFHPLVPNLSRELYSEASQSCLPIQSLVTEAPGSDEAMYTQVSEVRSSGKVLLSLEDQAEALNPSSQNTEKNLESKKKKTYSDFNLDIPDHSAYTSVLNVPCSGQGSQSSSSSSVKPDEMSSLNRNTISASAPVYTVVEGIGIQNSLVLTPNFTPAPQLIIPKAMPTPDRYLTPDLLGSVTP

FRET efficiency [1]	FRET efficiency [2]	Substance
0.036	0.0534	growth hormone (gh) of Cynoglossus semilaevis, mNeonGreen fusion (pcDNA3.1-N-gh) (ligand)
	0.0509	somatolactin (sl) of Cynoglossus semilaevis, mNeonGreen fusion (pcDNA3.1-N-sl) (ligand)
